Experimental findings from US20210205445A1 are described below.

The assay concerns the target Dectin-2 on murine bone marrow-derived dendritic cells (mouse) (UniProt Q9JKF4). The assay is described as follows: cell-based or functional assay.
Chain of UniProt Q9JKF4 (Q9JKF4 whole entry): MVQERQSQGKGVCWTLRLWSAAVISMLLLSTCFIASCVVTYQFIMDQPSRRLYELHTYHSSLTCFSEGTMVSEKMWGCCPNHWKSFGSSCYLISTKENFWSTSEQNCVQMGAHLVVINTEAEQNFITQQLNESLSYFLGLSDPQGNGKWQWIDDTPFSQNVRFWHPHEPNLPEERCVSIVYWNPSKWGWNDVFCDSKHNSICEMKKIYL

Substance “recombinant Bl-Eng2 (Blastomyces dermatitidis Eng2 expressed in Pichia pastoris, C-terminal Myc-6xHis tag) (ligand)” displayed a Ligand induced IL-6 production by murine BMDC, against Furfurman, Man-Lam and MP98 above 100 fold.
